Molecular target: IL-1 receptor (human) (UniProt P14778)
Assay: cell-based or functional assay

Sequence of UniProt P14778 (P14778 18-569): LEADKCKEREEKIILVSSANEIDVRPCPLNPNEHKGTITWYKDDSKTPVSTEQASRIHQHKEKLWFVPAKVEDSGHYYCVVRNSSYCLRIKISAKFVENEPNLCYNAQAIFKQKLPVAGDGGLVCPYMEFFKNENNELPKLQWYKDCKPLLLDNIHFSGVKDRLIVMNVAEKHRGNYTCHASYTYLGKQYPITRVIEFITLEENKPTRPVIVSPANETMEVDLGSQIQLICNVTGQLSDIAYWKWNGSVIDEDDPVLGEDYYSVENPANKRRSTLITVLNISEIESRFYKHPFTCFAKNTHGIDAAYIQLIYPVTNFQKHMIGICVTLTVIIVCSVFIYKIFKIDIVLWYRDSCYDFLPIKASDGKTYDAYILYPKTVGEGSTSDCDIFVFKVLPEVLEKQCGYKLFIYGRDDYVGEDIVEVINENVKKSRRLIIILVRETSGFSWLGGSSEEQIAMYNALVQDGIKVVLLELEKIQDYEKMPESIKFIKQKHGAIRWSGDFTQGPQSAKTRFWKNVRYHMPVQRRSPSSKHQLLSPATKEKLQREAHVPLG

IL-1 receptor antagonist (IL-1Ra) (from UniProt P18510 26-177) (ligand)
antiviral activity of IFN-gamma (endpoint of 50% protection from viral cytopathic effect, human WISH cells): 125 IU/ml
level of IL-18BP in HaCat culture supernatants after IFN-gamma (ELISA): 0.35 ng/mL

Reference: patent US20110177065A1
